# Source: patent US9889195B2, “Immunogenic composition and uses thereof” (THE UNIVERSITY OF MELBOURNE, priority 2009, dated 2018)
# B1: ovalbumin (protein, UniProt P01012 2-386, looked up)
# Ovalbumin: GSIGAASMEFCFDVFKELKVHHANENIFYCPIAIMSALAMVYLGAKDSTRTQINKVVRFDKLPGFGDSIEAQCGTSVNVHSSLRDILNQITKPNDVYSFSLASRLYAEERYPILPEYLQCVKELYRGGLEPINFQTAADQARELINSWVESQTNGIIRNVLQPSSVDSQTAMVLVNAIVFKGLWEKAFKDEDTQAMPFRVTEQESKPVQMMYQIGLFRVASMASEKMKILELPFASGTMSMLVLLPDEVSGLEQLESIINFEKLTEWTSSNVMEERKIKVYLPRMKMEEKYNLTSVLMAMGITDVFSSSANLSGISSAESLKISQAVHAAHAEINEAGREVVGSAEAGVDAASVSEEFRADHPFLFCIKHIATNAVLFFGRCVSP
# notes: model protein antigen (Sigma Aldrich)
# Assay: Overall electrostatic charge of lipopeptide or protein antigen
# Format: physicochemical
Molecule,overall charge,overall negative charge
hen egg lysozyme [HEL],+8,–
B1,–,11
